From PMC11982570 (Scientific Reports, 2025)

B1: 103.2 mAb (antibody, V domains shown)
VH: QVQLQQSGAEVVRPGTSVKVSCKASGYAFTSYLIHWIKQRPGQGLEWIGVINPRSGDSHYNEKFKDRTTLTADQSSSTAYMQLSSLTSDDSAVYFCARSDYGAYWGQGTLVTVSA
VL: DIVLTQSPVTLSVTPGDSVSLSCRASQSISNNLHWYRQKSHESPRLLIKYASQSIFGIPSRFSGSGSGTEFTLSINSVETEDFGIYFCQQSNSWPHTFGTGTKLELK
B2: 103.2^5 mAb hinge variant (antibody, V domains shown)
VH: B1 VH
VL: B1 VL
B3: 103.2^10 mAb hinge variant (antibody, V domains shown)
VH: B1 VH
VL: B1 VL
B4: 103.2^30 mAb hinge variant (antibody, V domains shown)
VH: B1 VH
VL: B1 VL
B5: 103.2^15 mAb hinge variant (antibody, V domains shown)
VH: B1 VH
VL: B1 VL

What follows are binders tested against Biotinylated BTN3A1 ectodomain + avitag (Homo sapiens, UniProt O00481, biotin on the C-terminal BirA biotinylation sequence) (assay: BLI).
Sequence of Biotinylated BTN3A1 ectodomain + avitag (O00481 whole entry, looked up, the tested form may be a part): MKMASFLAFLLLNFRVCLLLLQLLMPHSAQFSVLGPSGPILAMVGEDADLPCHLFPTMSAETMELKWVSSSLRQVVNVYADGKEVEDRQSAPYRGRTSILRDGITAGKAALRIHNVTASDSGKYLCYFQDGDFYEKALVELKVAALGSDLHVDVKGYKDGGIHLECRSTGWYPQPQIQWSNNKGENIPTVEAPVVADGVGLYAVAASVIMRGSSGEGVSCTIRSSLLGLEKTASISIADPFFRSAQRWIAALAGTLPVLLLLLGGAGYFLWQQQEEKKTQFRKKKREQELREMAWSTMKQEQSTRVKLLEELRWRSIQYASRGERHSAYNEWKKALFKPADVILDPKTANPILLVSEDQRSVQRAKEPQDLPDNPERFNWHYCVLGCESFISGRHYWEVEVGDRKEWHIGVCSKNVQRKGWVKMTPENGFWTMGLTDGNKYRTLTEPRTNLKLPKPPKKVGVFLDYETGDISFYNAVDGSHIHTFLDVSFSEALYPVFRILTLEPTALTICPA

| Binder | binding result |
| --- | --- |
| B1 | binds |
| B2 | binds |
| B3 | binds |
| B4 | binds |
| B5 | binds |
